According to patent US20120184020A1, “ENGINEERED MICROORGANISMS WITH ENHANCED FERMENTATION ACTIVITY” (Verdezyne, Inc., priority 2009, published 2012):

B1: Mutant 13: S. cerevisiae ZWF1 site-directed mutant A24G/A51D (protein, UniProt P11412 2-505, looked up, variant A24G A51D)
Glucose-6-phosphate …: SEGPVKFEKNTVISVFGASGDLGKKKTFPALFGLFREGYLDPSTKIFGYDRSKLSMEEDLKSRVLPHLKKPHGEADDSKVEQFFKMVSYISGNYDTDEGFDELRTQIEKFEKSANVDVPHRLFYLALPPSVFLTVAKQIKSRVYAENGITRVIVEKPFGHDLASARELQKNLGPLFKEEELYRIDHYLGKELVKNLLVLRFGNQFLNASWNRDNIQSVQISFKERFGTEGRGGYFDSIGIIRDVMQNHLLQIMTLLTMERPVSFDPESIRDEKVKVLKAVAPIDTDDVLLGQYGKSEDGSKPAYVDDDTVDKDSKCVTFAAMTFNIENERWEGVPIMMRAGKALNESKVEIRLQYKAVASGVFKDIPNNELVIRVQPDAAVYLKFNAKTPGLSNATQVTDLNLTYASRYQDFWIPEAYEVLIRDALLGDHSNFVRDDELDISWGIFTPLLKHIERPDGPTPEIYPYGSRGPKGLKEYMQKHKYVMPEKHPYAWPVTKPEDTKDN
B2: XI-Rp5: chimera: first 5 amino acids of Piromyces xylose isomerase followed by Ruminococcus xylose isomerase, SEQ ID NO. 56 (protein)
chain: MAKEYFSNIGKIQYQGPKSTDPLSFKYYNPEEVINGKTMREHLKFALSWWHTMGGDGTDMFGCGTTDKTWGQSDPAARAKAKVDAAFEIMDKLSIDYYCFHDRDLSPEYGSLKATNDQLDIVTDYIKEKQGDKFKCLWGTAKCFDHPRFMHGAGTSPSADVFAFSAAQIKKALESTVKLGGNGYVFWGGREGYETLLNTNMGLELDNMARLMKMAVEYGRSIGFKGDFYIEPKPKEPTKHQYDFDTATVLGFLRKYGLDKDFKMNIEANHATLAQHTFQHELRVARDNGVFGSIDANQGDVLLGWDTDQFPTNIYDTTMCMYEVIKAGGFTNGGLNFDAKARRGSFTPEDIFYSYIAGMDAFALGFRAALKLIEDGRIDKFVADRYASWNTGIGADIIAGKADFASLEKYALEKGEVTASLSSGRQEMLESIVNNVLFSL
B3: Codon-optimized EDA from P. aeruginosa: codon-optimized version of the P. aeruginosa EDA gene (protein, UniProt O68283 1-220, looked up)
2-dehydro-3-deoxy-phosphogluco …: MHNLEQKTARIDTLCREARILPVITIDREADILPMADALAAGGLTALEITLRTAHGLTAIRRLSEERPHLRIGAGTVLDPRTFAAAEKAGASFVVTPGCTDELLRFALDSEVPLLPGVASASEIMLAYRHGYRRFKLFPAEVSGGPAALKAFSGPFPDIRFCPTGGVSLNNLADYLAVPNVMCVGGTWMLPKAVVDRGDWAQVERLSREALERFAEHRRH
modifications: codon-optimized gene
B4: XI-Rp10: chimera: first 10 amino acids of Piromyces xylose isomerase then amino acids 11 to 438 of Ruminococcus enzyme, SEQ ID NO. 58 (protein)
chain: MAKEYFPQIQQYQGPKSTDPLSFKYYNPEEVINGKTMREHLKFALSWWHTMGGDGTDMFGCGTTDKTWGQSDPAARAKAKVDAAFEIMDKLSIDYYCFHDRDLSPEYGSLKATNDQLDIVTDYIKEKQGDKFKCLWGTAKCFDHPRFMHGAGTSPSADVFAFSAAQIKKALESTVKLGGNGYVFWGGREGYETLLNTNMGLELDNMARLMKMAVEYGRSIGFKGDFYIEPKPKEPTKHQYDFDTATVLGFLRKYGLDKDFKMNIEANHATLAQHTFQHELRVARDNGVFGSIDANQGDVLLGWDTDQFPTNIYDTTMCMYEVIKAGGFTNGGLNFDAKARRGSFTPEDIFYSYIAGMDAFALGFRAALKLIEDGRIDKFVADRYASWNTGIGADIIAGKADFASLEKYALEKGEVTASLSSGRQEMLESIVNNVLFSL
B5: XI-Rp15: chimera: first 15 amino acids of Piromyces xylose isomerase then amino acids 16 to 438 of Ruminococcus enzyme, SEQ ID NO. 60 (protein)
chain: MAKEYFPQIQKIKFEKSTDPLSFKYYNPEEVINGKTMREHLKFALSWWHTMGGDGTDMFGCGTTDKTWGQSDPAARAKAKVDAAFEIMDKLSIDYYCFHDRDLSPEYGSLKATNDQLDIVTDYIKEKQGDKFKCLWGTAKCFDHPRFMHGAGTSPSADVFAFSAAQIKKALESTVKLGGNGYVFWGGREGYETLLNTNMGLELDNMARLMKMAVEYGRSIGFKGDFYIEPKPKEPTKHQYDFDTATVLGFLRKYGLDKDFKMNIEANHATLAQHTFQHELRVARDNGVFGSIDANQGDVLLGWDTDQFPTNIYDTTMCMYEVIKAGGFTNGGLNFDAKARRGSFTPEDIFYSYIAGMDAFALGFRAALKLIEDGRIDKFVADRYASWNTGIGADIIAGKADFASLEKYALEKGEVTASLSSGRQEMLESIVNNVLFSL

Assays:
[1] = Xylose isomerase activity/kinetic assay on soluble whole cell extract (sorbitol dehydrogenase coupled, NADH, A340); type: biochemical; conditions: for Km: xylose 40-500 mM
Protocol: […] Louis, Mo.), and about 2 U sorbitol dehydrogenase (Roche) at about 30° C. […] A Beckman DU-800 was utilized with an Enzyme Mechanism software package (Beckman Coulter, Inc.), and the change in the A340 was monitored for 2-3 minutes.
[…] Louis, Mo.), and 2 U Sorbitol Dehydrogenase (SDH) (Roche, Indianapolis, Ind.) at about 30° C. […] A Beckman DU-800 spectrophotometer was utilized with an Enzyme Mechanism software package (Beckman Coulter, Inc, Brea, Calif.), and the change in the A340 was monitored for 2-3 minutes.
[…] Louis, Mo.), and 2 U sorbitol dehydrogenase (SDH) (Roche, Indianapolis, Ind.) at about 30° C. […] A Beckman DU-800 spectrophotometer was utilized with an Enzyme Mechanism software package (Beckman Coulter, Inc, Brea, Calif.), and the change in the A340 was monitored for 2-3 minutes.
Approximately 20 μg of soluble whole cell extract from each transformed cell line was prepared using Y-PER plus reagent as described above was incubated in a solution containing about 100 mM Tris, pH 7.5, 10 mM MgCl ? 2, 0.15 mM NADH (Sigma, St. Louis, Mo.), and 2 U Sorbitol Dehydrogenase (SDH) (Roche, Indianapolis, Ind.) at about 30° C. […] A Beckman DU-800 spectrophotometer was utilized with an Enzyme Mechanism software package (Beckman Coulter, Inc, Brea, Calif.), and the change in the A340 was monitored for 2-3 minutes.

[2] = system: engineered yeast (S. cerevisiae); assay: Heterologous xylose isomerase expression in yeast (active yes/no); type: cell-based; conditions: xylose isomerase of donor organism expressed in engineered yeast (S. cerevisiae)
[3] = ZWF1 (glucose-6-phosphate dehydrogenase) kinetic assay on crude extract with NADP+ or NAD+; type: biochemical
Protocol: Strain BY4742 zwf1 (ATCC Cat. No. 4011971; Winzeler E A, et al. Science 285: 901-906, 1999. PubMed: 10436161) was used as the base strain for all ZWF1 assays. The assays were performed as follows: A 5 ml overnight of the strain expressing the ZWF1 gene was grown in SCD-ura. A 50 ml culture of the strain was then grown for about 18 hours from an initial OD600 of about 0.2 until it had reached about OD600 of about 4. The cells were centrifuged at 1046×g washed twice with 25 ml cold sterile water, and resuspended in 2 ml/g Yper Plus (Thermo Scientific) plus 1×protease inhibitors (EDTA-free). The cells were allowed to lyse at room temperature for about 30 minutes with constant rotation of the tubes. The lysate was centrifuged at 16,100×g for 10 minutes at 4° C. and the supernatants were transferred to a new 1.5 ml microcentrifuge tube. Quantification of the lysates was performed using the Coomassie-Plus kit (Thermo Scientific, San Diego, Calif.) as directed by the manufacturer.
The reaction was started with 20 mM glucose-6-phosphate and the reaction was monitored at A340. The specific activity was measured as the μmol substrate/min/mg protein.

[4] = EDA activity assay: S. cerevisiae EDA extracts with saturating E. coli EDD extract (LDH coupled, NADH); type: biochemical; conditions: EDAs expressed in S. cerevisiae, saturating E. coli EDD extract
Protocol: EDA genes isolated from a variety of sources were expressed in yeast and evaluated independently of EDA activity, to identify EDA activities suitable of inclusion in an engineered yeast strain. […] The activity of integrated EDAs in Thermosacc-Gold haploids, were also evaluated in this manner.
EDD extractions (adapted from Chemyan et al, Protein Science 16:2368-2377, 2007): • 1) Pellet cells in 50 ml conical tubes, 4° C., 3,000 rpm, 10 mins, discard supernatant. • 2) Resuspend in 2 ml degassed PDGH buffer (20 mM MES pH 6.5, 30 mM NaCl, 5 mM MnCl2, 0.5 mM FeCl2, 10 mM 2-mercaptoethanol, 10 mM cysteine, sparged with nitrogen gas). Move to hungate tube. • 3) Add 0.1% Triton X-100, 10 ng/ml DNase, 10 μg/ml PMSF, 10 μg/ml TAME (Na-(p-toluene sulfonyl)-L-arginine methyl ester), 100 μg/ml lysozyme. • 4) Sparge hungate tube with nitrogen gas, cap and seal. Incubate 2 hours at 37° C., swirl occasionally. • 5) Clarify by centrifugation in 2-ml tube, 4° C., 10 mins, 14,000 rpm. Keep supernatant. • 6) Treat with 150 mM pyruvate and 10 mM sodium cyanoborohydride (work in hood) to inactivate aldolase activity. Incubate 30 mins at room temperature. • 7) During incubation, pre-equilibrate PD-10 column from GE • a. Remove top cap, pour off storage buffer. • b. Cut off bottom tip, fit in 50 ml conical with adapter. • c. Pour 5 ml of 20 mM MES buffer, pH 6.5 (total of 5 times). Discard flow-through. • 8) Run sample through column, then add MES buffer to a total of 2.5 ml volume added. Discard flow-through. • 9) Run 3.5 ml 20 mM MES pH 6.5 buffer to elute protein. Discard column in appropriate waste receptacle. • 10) Perform Bradford assay (1:10 or 1:20 dilution).
• 1) Spin down in 50 ml conicals, 4° C., 3,400 rpm, 5 mins. […]
Each reaction contains 50 mM Tris-HCl, pH 7, 10 mM MgCl2, 0.15 mM NADH, 15 μg LDH, saturating amounts of EDD determined empirically (usually −100 μg), 1-50 μg EDA (depending on level of activity), and 1 mM 6-phosphogluconate. Reactions are started by the addition of 6-phosphogluconate and monitored for 5 mins at 30° C.

| Molecule | Specific Activity ([1]; chimeric variants) | Km ([1]; chimeric variants) | other results |
| --- | --- | --- | --- |
| Piromyces xylose isomerase: xylose isomerase from Piromyces strain E2, SEQ ID NO. 35 [reference compound] | – | – | Specific Activity ([1]; soluble whole cell extract, about 30° C.): 2.02 µmol/min/mg; Active? (yes/no) [2]: Yes |
| B1 | – | – | NAD+ usage ([3]; initial kinetic screening of S. cerevisiae ZWF1 (zwf1_sc) mutants, preliminary cofactor phenotype, NAD+ as cofactor): Yes; NADP+ usage ([3]; initial kinetic screening of S. cerevisiae ZWF1 (zwf1_sc) mutants, preliminary cofactor phenotype, NADP+ as cofactor): No; cofactor utilization (NAD+ / NADP+) ([3]; initial kinetic screening of S. cerevisiae ZWF1 mutants): enabled NAD+ utilization with concomitant loss of NADP+ utilization |
| B2 | 1.45 µmol/min/mg | 66.5 mM | – |
| B3 | – | – | EDA activity compared (in words) [4]: slight improvement over the native sequence |
| B4 | 2.10 µmol/min/mg | 75.8 mM | – |
| B5 | 1.53 µmol/min/mg | 49.3 mM | – |
